Paper PMC8726015

B1: fruit fly pantothenate kinase dPANK/FblD (Fumble D) (Drosophila melanogaster) (protein)
chain: MPWFGMDIGGTLTKLVYFEPKDITPDEQDREAGILRNIRRYLTKNSAYGKTGHRDTHLQMDNVEIRKRRGSLHFIRFQTTDMGNFLSLAKQKGMAELVTTVCATGGGAFKFEQDFRDQVNMKLAKFDELDTLIKGILFADLHNRTECYYYENARDILKSEKQQFNFSQPFPFILVNVGSGVSILAVYGPDNYKRISGTSLGGGTFLGLCCLLTGCTSFEEAIQLATKGDNRKVDKLVKDIYGGDYNRFGLPGDLVASSFGQMHLNDKRVSVSREDLANATLVTITNNIGSIARMCALNEKIDRVVFVGNFLRVNPISMKLLAYAMEFWSNGTMKGLFLEHEGYFGALGCLLQFNGELAAALNDGVEHSIHTESDSASEAAQTSSTADEPPEKAPTSKHSTR
B2: human pantothenate kinase hPANK3 (Homo sapiens) (protein)
chain: PWFGMDIGGTLVKLSYFEPIDITAEEEQEEVESLKSIRKYLTSNVAYGSTGIRDVHLELKDLTLFGRRGNLHFIRFPTQDLPTFIQMGRDKNFSTLQTVLCATGGGAYKFEKDFRTIGNLHLHKLDELDCLVKGLLYIDSVSFNGQAECYYFANASEPERCQKMPFNLDDPYPLLVVNIGSGVSILAVHSKDNYKRVTGTSLGGGTFLGLCSLLTGCESFEEALEMASKGDSTQADKLVRDIYGGDYERFGLPGWAVASSFGNMIYKEKRESVSKEDLARATLVTITNNIGSVARMCAVNEKINRVVFVGNFLRVNTLSMKLLAYALDYWSKGQLKALFLEHEGYFGAVGALLGLPNFS

Experiments:
Test in all cases: purified protein
Settings in all cases: ATP; Mg2+
purified protein [1] = substrate: CC(C)(CO)[C@@H](O)C(=O)NCCC(=O)NCCS; format: biochemical, Drosophila melanogaster
purified protein [2] = substrate: CC(C)(CO)[C@@H](O)C(=O)NCCCC(=O)O; format: biochemical, Drosophila melanogaster
purified protein [3] = substrate: CC(C)(CO)[C@@H](O)C(=O)NCCC(=O)NCCS; format: biochemical, Homo sapiens
purified protein [4] = substrate: CC(C)(CO)[C@@H](O)C(=O)NCCCC(=O)O; format: biochemical, Homo sapiens

Protein | K0.5 (purified protein [1]) [µM] | K0.5 (purified protein [2]) [µM] | kcat (purified protein [2]) [s⁻¹] | kcat/Km (purified protein [2]) [M⁻¹ s⁻¹] | K0.5 (purified protein [3]) [µM] | kcat (purified protein [3]) [s⁻¹] | kcat/Km (purified protein [3]) [M⁻¹ s⁻¹] | K0.5 (purified protein [4]) [µM] | kcat (purified protein [4]) [s⁻¹] | kcat/Km (purified protein [4]) [M⁻¹ s⁻¹]
B1 | 28.9 ± 13.0 | 82.2 ± 12.4 | 2.72 ± 0.5 | 35600 ± 8400 |  |  |  |  |  | 
B2 |  |  |  |  | 8.05 ± 1.87 | 0.41 ± 0.13 | 57600 ± 24600 | 36.2 ± 2.1 | 0.67 ± 0.02 | 19500 ± 1600
